From patent US20060008846A1 (RESEARCH DEVELOPMENT FOUNDATION, published 2006)

T1: ALK4 (activin type I receptor) (UniProt P36896 24-505, limits assumed)
T1 sequence (looked up): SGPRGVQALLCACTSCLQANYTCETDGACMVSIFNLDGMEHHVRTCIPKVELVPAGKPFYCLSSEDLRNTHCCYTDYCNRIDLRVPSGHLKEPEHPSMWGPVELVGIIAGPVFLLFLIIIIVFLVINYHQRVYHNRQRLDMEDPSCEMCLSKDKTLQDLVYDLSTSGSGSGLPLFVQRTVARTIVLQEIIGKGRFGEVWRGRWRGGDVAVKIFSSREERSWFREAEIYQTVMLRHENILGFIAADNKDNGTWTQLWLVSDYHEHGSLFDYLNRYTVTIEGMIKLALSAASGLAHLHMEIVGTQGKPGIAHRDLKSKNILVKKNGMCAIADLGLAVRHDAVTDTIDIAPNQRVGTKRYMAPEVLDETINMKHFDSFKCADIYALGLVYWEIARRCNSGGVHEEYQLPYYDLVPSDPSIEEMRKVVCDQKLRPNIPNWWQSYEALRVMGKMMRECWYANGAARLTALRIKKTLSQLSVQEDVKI


Key:
[1] = target: T2, mouse ActRII transfected into 293T cells (mouse, UniProt P27038 20-513); assay: ActRII binding, 293T cells transfected with mouse ActRII
T2 construct: whole, on cells
T2 sequence (P27038 20-513): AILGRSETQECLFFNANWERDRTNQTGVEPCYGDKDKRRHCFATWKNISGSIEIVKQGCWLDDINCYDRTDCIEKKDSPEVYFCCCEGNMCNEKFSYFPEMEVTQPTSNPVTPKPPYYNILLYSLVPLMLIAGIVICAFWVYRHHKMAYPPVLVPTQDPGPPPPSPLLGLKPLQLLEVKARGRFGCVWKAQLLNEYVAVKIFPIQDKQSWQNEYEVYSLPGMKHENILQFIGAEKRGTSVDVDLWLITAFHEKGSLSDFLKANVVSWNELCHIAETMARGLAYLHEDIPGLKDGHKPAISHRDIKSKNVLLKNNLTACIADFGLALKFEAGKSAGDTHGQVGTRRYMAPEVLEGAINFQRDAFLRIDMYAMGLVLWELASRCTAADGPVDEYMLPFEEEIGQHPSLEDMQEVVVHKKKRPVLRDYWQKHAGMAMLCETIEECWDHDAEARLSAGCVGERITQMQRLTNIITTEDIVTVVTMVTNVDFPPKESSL
Experimental: After the incubation cells were washed three times with HDB buffer and lysed with 1% SDS solution. Radioactivity in the lysate was determined using a gamma counter.
Therefore, the inventors contemplate engineering a series of activin-A chimeras, such as activin-A/C chimeras, preferably having a peptide tag such a FLAG tag, in each of […] in the wrist loop and helix (such as A/C 46-53, 54-63, 64-69, 70-78) are replaced. Additionally, a chimera was generated in which the entire wrist region (A/C 46-78) was changed from activin-A to activin-C or some other analogous TGF-β member. In one example, the chimeras were assessed for ActRII binding, activin bioactivity as well as antagonistic properties. […] Maximum activity of A/C 64-69 and 70-78, however, was reduced down to about 20-50% and 60-90%, respectively, when compared to wt activin. […] Additionally, A/C 46-78 decreased the basal and activin induced FSH release from cultured rat anterior pituitary cells in a concentration dependent manner. […] The activin antagonist A/C 46-78 may be useful for the study and modulation of activin dependent processes.

[2] = target: ActRII (type II activin receptor) transfected into 293T cells (UniProt P27038); assay: cell-based or functional assay
ActRII (type II activin receptor) transfected into 293T cells, sequence (P27038 20-513): as above

[3] = target: type II activin receptors in 293T cells; assay: cell-based or functional assay
[4] = target: T1, ALK4 (activin type I receptor); assay: cell-based or functional assay

| Binder | binding result [1] | % Activin Activity (A3-luciferase assay in 293T cells) [4] | other results |
| --- | --- | --- | --- |
| activin-A/C chimera A/C 46-78 (ligand, UniProt P08476 311-355, looked up, range 1-45 of the mature chain;range 46-78 of the mature chain;range 79 to C-terminus of the mature chain; also called A/C 46-78 chimera) GLECDGKVNICCKKQFFVSFKDIGWNDWIIAPSGYHANYCEGECPLHIAGMPGIAASFHTAVLNLLKANTAAGTTGGGSCCVPTKLRPMSMLYYDDGQNIIKKDIQNMIVEECGCS | binds |  |  |
| activin-A K102E (ligand, human, UniProt P08476 311-426, looked up) GLECDGKVNICCKKQFFVSFKDIGWNDWIIAPSGYHANYCEGECPSHIAGTSGSSLSFHSTVINHYRMRGHSPFANLKSCCVPTKLRPMSMLYYDDGQNIIEKDIQNMIVEECGCS |  |  | % Activin Activity (A3-luciferase assay in 293T cells) (% of wild type activin-A) [2]: 18 |
| activin-A (M108A), P08476 311-426 (ligand, human, UniProt P08476 311-426, looked up) GLECDGKVNICCKKQFFVSFKDIGWNDWIIAPSGYHANYCEGECPSHIAGTSGSSLSFHSTVINHYRMRGHSPFANLKSCCVPTKLRPMSMLYYDDGQNIIKKDIQNAIVEECGCS |  |  | activin-A (100 pM) induced luciferase response in 293T cells with increasing amounts of M108A (fold induction) [3]: 23; myostatin (500 pM) induced luciferase response in 293T cells with increasing doses of M108A (fold induction) [3]: 26 |
| activin-A S60P (ligand, human, UniProt P08476 311-426, looked up) GLECDGKVNICCKKQFFVSFKDIGWNDWIIAPSGYHANYCEGECPSHIAGTSGSSLSFHPTVINHYRMRGHSPFANLKSCCVPTKLRPMSMLYYDDGQNIIKKDIQNMIVEECGCS |  | 17 % of wild type activin-A |  |
| activin-A I63P (ligand, human, UniProt P08476 311-426, looked up) GLECDGKVNICCKKQFFVSFKDIGWNDWIIAPSGYHANYCEGECPSHIAGTSGSSLSFHSTVPNHYRMRGHSPFANLKSCCVPTKLRPMSMLYYDDGQNIIKKDIQNMIVEECGCS |  | 19 % of wild type activin-A |  |
| activin-A M91E (ligand, human, UniProt P08476 311-426, looked up) GLECDGKVNICCKKQFFVSFKDIGWNDWIIAPSGYHANYCEGECPSHIAGTSGSSLSFHSTVINHYRMRGHSPFANLKSCCVPTKLRPMSELYYDDGQNIIKKDIQNMIVEECGCS |  | 3 % of wild type activin-A |  |
| activin-A/C chimera A/C 70-78 (ligand, UniProt P08476 311-379, looked up, range 1-69 of the mature chain;range 70-78 of the mature chain;range 79 to C-terminus of the mature chain) GLECDGKVNICCKKQFFVSFKDIGWNDWIIAPSGYHANYCEGECPSHIAGTSGSSLSFHSTVINHYRMRTAAGTTGGGSCCVPTKLRPMSMLYYDDGQNIIKKDIQNMIVEECGCS | binds |  |  |
| activin-A I105E (ligand, human, UniProt P08476 311-426, looked up) GLECDGKVNICCKKQFFVSFKDIGWNDWIIAPSGYHANYCEGECPSHIAGTSGSSLSFHSTVINHYRMRGHSPFANLKSCCVPTKLRPMSMLYYDDGQNIIKKDEQNMIVEECGCS |  | 13 % of wild type activin-A |  |
| activin-A M108E (ligand, human, UniProt P08476 311-426, looked up) GLECDGKVNICCKKQFFVSFKDIGWNDWIIAPSGYHANYCEGECPSHIAGTSGSSLSFHSTVINHYRMRGHSPFANLKSCCVPTKLRPMSMLYYDDGQNIIKKDIQNEIVEECGCS |  | 3 % of wild type activin-A |  |
| activin-A/C chimera A/C 64-69 (ligand, UniProt P08476 311-373, looked up, range 1-63 of the mature chain;range 64-69 of the mature chain;range 70 to C-terminus of the mature chain) GLECDGKVNICCKKQFFVSFKDIGWNDWIIAPSGYHANYCEGECPSHIAGTSGSSLSFHSTVINLLKANGHSPFANLKSCCVPTKLRPMSMLYYDDGQNIIKKDIQNMIVEECGCS | binds |  |  |
| activin-A/C chimera A/C 54-63 (ligand, UniProt P08476 311-363, looked up, range 1-53 of the mature chain;range 54-63 of the mature chain;range 64 to C-terminus of the mature chain) GLECDGKVNICCKKQFFVSFKDIGWNDWIIAPSGYHANYCEGECPSHIAGTSGIAASFHTAVLNHYRMRGHSPFANLKSCCVPTKLRPMSMLYYDDGQNIIKKDIQNMIVEECGCS | binds |  |  |
| activin-A/C chimera A/C 46-53 (ligand, UniProt P08476 311-355, looked up, range 1-45 of the mature chain;range 46-53 of the mature chain;range 54 to C-terminus of the mature chain) GLECDGKVNICCKKQFFVSFKDIGWNDWIIAPSGYHANYCEGECPLHIAGMPGSSLSFHSTVINHYRMRGHSPFANLKSCCVPTKLRPMSMLYYDDGQNIIKKDIQNMIVEECGCS | binds |  |  |
